Source: article PMC4027202

What was measured:
[1] = target: T1, Toscana virus nucleoprotein N (Toscana virus, UniProt P21701 1-253); assay: ITC; n=0.43; ITC: 20 mM Tris pH 7.5, 150 mM NaCl, 8 C; 400 uM RNA titrated into 30 uM apo N; conditions: protein: recombinant; tags: N-terminal His6; chain copies: 6; single strand
T1 sequence: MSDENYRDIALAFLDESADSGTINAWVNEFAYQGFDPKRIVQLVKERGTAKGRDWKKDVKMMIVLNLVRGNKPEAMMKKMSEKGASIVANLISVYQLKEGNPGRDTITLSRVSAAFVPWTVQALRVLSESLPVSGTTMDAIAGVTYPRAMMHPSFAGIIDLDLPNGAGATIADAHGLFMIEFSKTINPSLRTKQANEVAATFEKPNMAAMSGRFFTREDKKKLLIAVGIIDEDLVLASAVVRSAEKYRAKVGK

[2] = target: T1, Toscana virus nucleoprotein N; assay: ITC; n=0.52; ITC: 20 mM Tris pH 7.5, 150 mM NaCl, 8 C; 400 uM RNA titrated into 30 uM apo N; conditions: protein: recombinant; tags: N-terminal His6; chain copies: 6; single strand
[3] = target: T1, Toscana virus nucleoprotein N; assay: ITC; n=0.40; ITC: 20 mM Tris pH 7.5, 150 mM NaCl, 8 C; 400 uM RNA titrated into 30 uM apo N; conditions: protein: recombinant; tags: N-terminal His6; chain copies: 6; single strand
[4] = target: T1, Toscana virus nucleoprotein N; assay: ITC; n=0.49; ITC: 20 mM Tris pH 7.5, 150 mM NaCl, 8 C; 400 uM RNA titrated into 30 uM apo N; conditions: protein: recombinant; tags: N-terminal His6; chain copies: 6; single strand
RVFV nucleoprotein N = target: T2, RVFV nucleoprotein N (Rift Valley fever virus, UniProt D3K5I7 1-245); assay: ITC; n=0.70; main text gives 420 nM; ITC: 20 mM Tris pH 7.5, 150 mM NaCl, 8 C; […]; conditions: protein: recombinant; single strand
T2 sequence: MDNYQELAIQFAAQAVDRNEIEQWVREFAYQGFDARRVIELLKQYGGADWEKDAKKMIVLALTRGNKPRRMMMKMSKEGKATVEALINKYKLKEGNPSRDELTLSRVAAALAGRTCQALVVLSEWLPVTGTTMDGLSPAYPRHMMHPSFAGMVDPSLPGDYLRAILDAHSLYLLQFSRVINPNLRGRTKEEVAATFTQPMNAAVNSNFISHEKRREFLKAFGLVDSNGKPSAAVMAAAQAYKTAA

[5] = target: T1, Toscana virus nucleoprotein N; assay: ITC; n=0.50; ITC: 20 mM Tris pH 7.5, 150 mM NaCl, 8 C; 400 uM RNA titrated into 30 uM apo N; conditions: protein: recombinant; tags: N-terminal His6; chain copies: 6; single strand
[6] = target: the molecule itself; assay: crystal structure; N reconstituted with 9-mer RNA oligo1 (UGUGUUUCU); 11% PEG 3350, 0.1-M sodium malonate, pH 4.5-5.2; space group P1, 24 N and 12 RNA in the asymmetric unit, 2.6 Å
[7] = target: the molecule itself; assay: crystal structure; apo (RNA-free) N; 6.5% PEG 3350, 0.1-M sodium malonate, pH 4.5-5.2; space group P6, 12 molecules in the asymmetric unit, 3.3 Å
[8] = target: T1, Toscana virus nucleoprotein N; assay: ITC; n=0.51; ITC: 20 mM Tris pH 7.5, 150 mM NaCl, 8 C; 400 uM RNA titrated into 30 uM apo N; conditions: protein: recombinant; tags: N-terminal His6; chain copies: 6; single strand

Binder: UCUUUGUGU (ssRNA) [oligo2 (3' genomic consensus)]
- Kd [1]: 560 ± 70 nM

Binder: UGUGUUU (ssRNA) [oligo7 (7-mer from oligo1)]
- Kd [2]: 2700 ± 200 nM

Binder: UUUUUUUUU (ssRNA) [oligo5 (polyU 9-mer)]
- Kd [3]: 360 ± 40 nM

Binder: UAUGUUUCU (ssRNA) [oligo4 (G2A mutant of oligo1)]
- Kd [4]: 290 ± 40 nM

Binder: UGUGUUUCU (ssRNA) [oligo1 (reverted 3' consensus 9-mer)]
- Kd [4]: 260 ± 20 nM
- Kd (RVFV nucleoprotein N): 400 ± 100 nM

Binder: UGUGUU (ssRNA) [oligo8 (6-mer from oligo1)]
- Kd [5]: 8000 ± 900 nM

B1: Toscana virus nucleoprotein N (natural protein)
chain: MSDENYRDIALAFLDESADSGTINAWVNEFAYQGFDPKRIVQLVKERGTAKGRDWKKDVKMMIVLNLVRGNKPEAMMKKMSEKGASIVANLISVYQLKEGNPGRDTITLSRVSAAFVPWTVQALRVLSESLPVSGTTMDAIAGVTYPRAMMHPSFAGIIDLDLPNGAGATIADAHGLFMIEFSKTINPSLRTKQANEVAATFEKPNMAAMSGRFFTREDKKKLLIAVGIIDEDLVLASAVVRSAEKYRAKVGK
notes: Hexameric ring in both crystal forms
- stoichiometry N [6]: 6
- stoichiometry N [7]: 6

Binder: UGUGUUUC (ssRNA) [oligo6 (8-mer from oligo1)]
- Kd [8]: 710 ± 30 nM
